Results from PMC9482650, “Quantitative fragmentomics allow affinity mapping of interactomes” (Nature Communications, 2022).

T1: MPP6, Q9NZW5
T1 sequence (Q9NZW5 125-219, limits assumed, looked up): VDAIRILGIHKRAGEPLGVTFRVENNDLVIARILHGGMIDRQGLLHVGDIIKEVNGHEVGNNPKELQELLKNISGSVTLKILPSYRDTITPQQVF

T2: DLG3_1, Q92796
T2 sequence (Q92796 125-227, limits assumed, looked up): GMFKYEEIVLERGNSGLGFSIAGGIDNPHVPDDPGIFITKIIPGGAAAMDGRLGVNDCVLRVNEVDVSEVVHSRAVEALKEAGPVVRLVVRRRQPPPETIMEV

T3: SIPA1L2, Q9P2F8
T3 sequence (Q9P2F8 945-1036, limits assumed, looked up): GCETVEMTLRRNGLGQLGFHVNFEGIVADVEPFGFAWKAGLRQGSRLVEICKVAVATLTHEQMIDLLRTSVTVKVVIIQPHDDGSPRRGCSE

T4: SHANK1, Q9Y566
T4 sequence (Q9Y566 658-767, limits assumed, looked up): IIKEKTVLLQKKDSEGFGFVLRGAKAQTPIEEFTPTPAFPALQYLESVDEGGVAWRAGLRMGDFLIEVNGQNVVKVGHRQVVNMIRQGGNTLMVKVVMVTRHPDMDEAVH

T5: GRIP1_5, Q9Y3R0
T5 sequence (Q9Y3R0 568-668, limits assumed, looked up): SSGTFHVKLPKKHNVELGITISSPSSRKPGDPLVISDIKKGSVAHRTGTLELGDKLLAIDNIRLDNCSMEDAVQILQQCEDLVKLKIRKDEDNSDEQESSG

T6: RADIL, Q96JH8
T6 sequence (Q96JH8 971-1071, limits assumed, looked up): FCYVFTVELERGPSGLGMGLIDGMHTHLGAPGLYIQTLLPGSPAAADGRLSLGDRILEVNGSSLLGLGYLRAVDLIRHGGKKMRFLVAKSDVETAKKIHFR

T7: LIN7A, O14910
T7 sequence (O14910 103-200, limits assumed, looked up): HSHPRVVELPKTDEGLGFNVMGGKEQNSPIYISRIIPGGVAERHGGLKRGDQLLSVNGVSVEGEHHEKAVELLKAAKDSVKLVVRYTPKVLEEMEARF

T8: DLG3_2, Q92796
T8 sequence (Q92796 221-321, limits assumed, looked up): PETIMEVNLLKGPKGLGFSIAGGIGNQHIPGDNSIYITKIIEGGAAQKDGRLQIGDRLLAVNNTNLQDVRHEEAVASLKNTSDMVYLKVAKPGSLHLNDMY

T9: ARHGEF11, O15085
T9 sequence (O15085 42-136, limits assumed, looked up): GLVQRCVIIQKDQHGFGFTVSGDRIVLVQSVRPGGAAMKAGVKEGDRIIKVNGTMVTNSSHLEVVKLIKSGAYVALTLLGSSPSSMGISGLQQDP

B1: KCNA1, Q09470 (peptide)
chain: VNKSKLLTDV
B2: BAZ1A, Q9NRL2 (peptide)
chain: TPPAAKKSRI
B3: CTNNA1, P35221 (peptide)
chain: LSEFKAMDSI
B4: TRAF7, Q6Q0C0 (peptide)
chain: VDSTVKVWTC
B5: BPIFA2, Q96DR5 (peptide)
chain: QHKTQLQTLI

target: TJP1_2, Q07157; assay: holdup assay; parameters: key: below the threshold = too weak to quantify, mostly under pKd 3.1 to 4; settings: plain residues with an end cap or a label only (N-terminal biotin on a linker: ado-ado)
Sequence (Q07157 181-274): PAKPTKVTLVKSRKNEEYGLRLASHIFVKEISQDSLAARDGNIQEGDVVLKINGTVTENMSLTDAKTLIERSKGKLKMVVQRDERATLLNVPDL

Binder	pKd
B1	below the threshold
B2	below the threshold
B3	below the threshold
B4	below the threshold
B5	below the threshold

target: MAGI1_2, Q96QZ7; assay: holdup assay; parameters: key: below the threshold = too weak to quantify, mostly under pKd 3.1 to 4; settings: plain residues with an end cap or a label only (N-terminal biotin on a linker: ado-ado)
Sequence (Q96QZ7 456-580): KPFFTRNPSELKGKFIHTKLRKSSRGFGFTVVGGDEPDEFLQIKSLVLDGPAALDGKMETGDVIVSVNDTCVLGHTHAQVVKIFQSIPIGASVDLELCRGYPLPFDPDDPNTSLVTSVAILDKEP

Binder	pKd
B1	4.19
B2	below the threshold
B3	below the threshold
B4	below the threshold
B5	4.32

target: T1, MPP6, Q9NZW5; assay: holdup assay; parameters: key: below the threshold = too weak to quantify, mostly under pKd 3.1 to 4; settings: plain residues with an end cap or a label only (N-terminal biotin on a linker: ado-ado)

Binder	pKd
B1	below the threshold
B2	below the threshold
B3	below the threshold
B4	below the threshold
B5	below the threshold

target: PDLIM1, O00151; assay: holdup assay; parameters: key: below the threshold = too weak to quantify, mostly under pKd 3.1 to 4; settings: plain residues with an end cap or a label only (N-terminal biotin on a linker: ado-ado)
Sequence (O00151 1-87): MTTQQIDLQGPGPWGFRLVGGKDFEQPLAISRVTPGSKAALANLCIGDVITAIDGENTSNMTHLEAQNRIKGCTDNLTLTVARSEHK

Binder	pKd
B1	below the threshold
B2	below the threshold
B3	below the threshold
B4	below the threshold
B5	below the threshold

target: GOPC, Q9HD26; assay: holdup assay; parameters: key: below the threshold = too weak to quantify, mostly under pKd 3.1 to 4; settings: plain residues with an end cap or a label only (N-terminal biotin on a linker: ado-ado)

Binder	pKd
B1	below the threshold
B2	4.06
B3	below the threshold
B4	below the threshold
B5	4.01

target: FRMPD3, Q5JV73; assay: holdup assay; parameters: key: below the threshold = too weak to quantify, mostly under pKd 3.1 to 4; settings: plain residues with an end cap or a label only (N-terminal biotin on a linker: ado-ado)
Sequence (Q5JV73 12-100): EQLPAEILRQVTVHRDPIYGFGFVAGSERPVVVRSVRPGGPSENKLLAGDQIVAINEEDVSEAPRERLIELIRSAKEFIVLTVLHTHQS

Binder	pKd
B1	below the threshold
B2	below the threshold
B3	below the threshold
B4	3.64
B5	below the threshold

target: T2, DLG3_1, Q92796; assay: holdup assay; parameters: key: below the threshold = too weak to quantify, mostly under pKd 3.1 to 4; settings: plain residues with an end cap or a label only (N-terminal biotin on a linker: ado-ado)

Binder	pKd
B1	3.66
B2	3.53
B3	below the threshold
B4	below the threshold
B5	3.68

target: T3, SIPA1L2, Q9P2F8; assay: holdup assay; parameters: key: below the threshold = too weak to quantify, mostly under pKd 3.1 to 4; settings: plain residues with an end cap or a label only (N-terminal biotin on a linker: ado-ado)

Binder	pKd
B1	below the threshold
B2	below the threshold
B3	below the threshold
B4	below the threshold
B5	below the threshold

target: T4, SHANK1, Q9Y566; assay: holdup assay; parameters: key: below the threshold = too weak to quantify, mostly under pKd 3.1 to 4; settings: plain residues with an end cap or a label only (N-terminal biotin on a linker: ado-ado)

Binder	pKd
B1	below the threshold
B2	3.53
B3	below the threshold
B4	below the threshold
B5	4.02

target: MAGI3_2, Q5TCQ9; assay: holdup assay; parameters: key: below the threshold = too weak to quantify, mostly under pKd 3.1 to 4; settings: plain residues with an end cap or a label only (N-terminal biotin on a linker: ado-ado)
Sequence (Q5TCQ9 398-503): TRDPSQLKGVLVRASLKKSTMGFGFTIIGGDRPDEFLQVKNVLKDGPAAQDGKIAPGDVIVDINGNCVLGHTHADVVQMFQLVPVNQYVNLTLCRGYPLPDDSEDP

Binder	pKd
B1	4.16
B2	below the threshold
B3	below the threshold
B4	below the threshold
B5	4.54

target: T5, GRIP1_5, Q9Y3R0; assay: holdup assay; parameters: key: below the threshold = too weak to quantify, mostly under pKd 3.1 to 4; settings: plain residues with an end cap or a label only (N-terminal biotin on a linker: ado-ado)

Binder	pKd
B1	below the threshold
B2	below the threshold
B3	below the threshold
B4	below the threshold
B5	below the threshold

target: DLG1_1, Q12959; assay: holdup assay; parameters: key: below the threshold = too weak to quantify, mostly under pKd 3.1 to 4; settings: plain residues with an end cap or a label only (N-terminal biotin on a linker: ado-ado)

Binder	pKd
B1	4.11
B2	below the threshold
B3	below the threshold
B4	below the threshold
B5	4.34

target: T6, RADIL, Q96JH8; assay: holdup assay; parameters: key: below the threshold = too weak to quantify, mostly under pKd 3.1 to 4; settings: plain residues with an end cap or a label only (N-terminal biotin on a linker: ado-ado)

Binder	pKd
B1	below the threshold
B2	below the threshold
B3	below the threshold
B4	4.2
B5	3.91

target: GRASP, Q7Z6J2; assay: holdup assay; parameters: key: below the threshold = too weak to quantify, mostly under pKd 3.1 to 4; settings: plain residues with an end cap or a label only (N-terminal biotin on a linker: ado-ado)
Sequence (Q7Z6J2 96-193): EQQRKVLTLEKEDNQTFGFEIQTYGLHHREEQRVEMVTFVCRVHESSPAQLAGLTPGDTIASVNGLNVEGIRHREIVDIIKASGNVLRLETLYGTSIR

Binder	pKd
B1	below the threshold
B2	below the threshold
B3	below the threshold
B4	3.85
B5	4.04

target: LDB3, O75112; assay: holdup assay; parameters: key: below the threshold = too weak to quantify, mostly under pKd 3.1 to 4; settings: plain residues with an end cap or a label only (N-terminal biotin on a linker: ado-ado)
Sequence (O75112 1-94): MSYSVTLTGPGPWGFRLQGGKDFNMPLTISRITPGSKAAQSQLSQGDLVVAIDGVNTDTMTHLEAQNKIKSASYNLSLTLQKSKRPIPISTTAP

Binder	pKd
B1	below the threshold
B2	below the threshold
B3	below the threshold
B4	below the threshold
B5	below the threshold

target: SCRIB_2, Q14160; assay: holdup assay; parameters: key: below the threshold = too weak to quantify, mostly under pKd 3.1 to 4; settings: plain residues with an end cap or a label only (N-terminal biotin on a linker: ado-ado)
Sequence (Q14160 857-960): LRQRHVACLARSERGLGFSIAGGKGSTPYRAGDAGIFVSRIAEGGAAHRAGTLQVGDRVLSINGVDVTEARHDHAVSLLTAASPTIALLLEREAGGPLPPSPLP

Binder	pKd
B1	below the threshold
B2	below the threshold
B3	below the threshold
B4	below the threshold
B5	below the threshold

target: DLG1_3, Q12959; assay: holdup assay; parameters: key: below the threshold = too weak to quantify, mostly under pKd 3.1 to 4; settings: plain residues with an end cap or a label only (N-terminal biotin on a linker: ado-ado)

Binder	pKd
B1	below the threshold
B2	3.81
B3	below the threshold
B4	below the threshold
B5	3.68

target: AHNAK1, Q09666; assay: holdup assay; parameters: key: below the threshold = too weak to quantify, mostly under pKd 3.1 to 4; settings: plain residues with an end cap or a label only (N-terminal biotin on a linker: ado-ado)
Sequence (Q09666 4-100): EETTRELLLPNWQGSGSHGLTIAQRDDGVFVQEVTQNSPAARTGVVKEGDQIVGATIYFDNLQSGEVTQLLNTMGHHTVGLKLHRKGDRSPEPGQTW

Binder	pKd
B1	below the threshold
B2	below the threshold
B3	below the threshold
B4	below the threshold
B5	below the threshold

target: GORASP2, Q9H8Y8; assay: holdup assay; parameters: key: below the threshold = too weak to quantify, mostly under pKd 3.1 to 4; settings: plain residues with an end cap or a label only (N-terminal biotin on a linker: ado-ado)

Binder	pKd
B1	3.91
B2	below the threshold
B3	below the threshold
B4	4.88
B5	3.77

target: T7, LIN7A, O14910; assay: holdup assay; parameters: key: below the threshold = too weak to quantify, mostly under pKd 3.1 to 4; settings: plain residues with an end cap or a label only (N-terminal biotin on a linker: ado-ado)

Binder	pKd
B1	below the threshold
B2	below the threshold
B3	below the threshold
B4	below the threshold
B5	below the threshold

target: DLG4_3, P78352; assay: holdup assay; parameters: key: below the threshold = too weak to quantify, mostly under pKd 3.1 to 4; settings: plain residues with an end cap or a label only (N-terminal biotin on a linker: ado-ado)
Sequence (P78352 306-403): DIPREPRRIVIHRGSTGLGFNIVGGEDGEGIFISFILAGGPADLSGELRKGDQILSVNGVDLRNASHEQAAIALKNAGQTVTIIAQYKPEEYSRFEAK

Binder	pKd
B1	3.53
B2	below the threshold
B3	below the threshold
B4	3.56
B5	3.72

target: DLG4_2, P78352; assay: holdup assay; parameters: key: below the threshold = too weak to quantify, mostly under pKd 3.1 to 4; settings: plain residues with an end cap or a label only (N-terminal biotin on a linker: ado-ado)
Sequence (P78352 155-259): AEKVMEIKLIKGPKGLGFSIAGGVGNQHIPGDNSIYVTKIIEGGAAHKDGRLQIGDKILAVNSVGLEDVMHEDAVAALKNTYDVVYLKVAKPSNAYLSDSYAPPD

Binder	pKd
B1	4.43
B2	3.85
B3	below the threshold
B4	3.7
B5	4.56

target: T8, DLG3_2, Q92796; assay: holdup assay; parameters: key: below the threshold = too weak to quantify, mostly under pKd 3.1 to 4; settings: plain residues with an end cap or a label only (N-terminal biotin on a linker: ado-ado)

Binder	pKd
B1	4.7
B2	below the threshold
B3	3.56
B4	4.18
B5	4.08

target: IL16_1, Q14005; assay: holdup assay; parameters: key: below the threshold = too weak to quantify, mostly under pKd 3.1 to 4; settings: plain residues with an end cap or a label only (N-terminal biotin on a linker: ado-ado)
Sequence (Q14005 210-306): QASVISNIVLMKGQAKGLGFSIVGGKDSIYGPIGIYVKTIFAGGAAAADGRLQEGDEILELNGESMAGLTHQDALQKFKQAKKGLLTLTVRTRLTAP

Binder	pKd
B1	below the threshold
B2	below the threshold
B3	below the threshold
B4	below the threshold
B5	below the threshold

target: MAGI2_2, Q86UL8; assay: holdup assay; parameters: key: below the threshold = too weak to quantify, mostly under pKd 3.1 to 4; settings: plain residues with an end cap or a label only (N-terminal biotin on a linker: ado-ado)
Sequence (Q86UL8 410-522): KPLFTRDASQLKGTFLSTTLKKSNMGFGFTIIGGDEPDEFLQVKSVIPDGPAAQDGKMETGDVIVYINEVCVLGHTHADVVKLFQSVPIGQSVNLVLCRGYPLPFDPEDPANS

Binder	pKd
B1	4.06
B2	below the threshold
B3	below the threshold
B4	3.65
B5	4.43

target: T9, ARHGEF11, O15085; assay: holdup assay; parameters: key: below the threshold = too weak to quantify, mostly under pKd 3.1 to 4; settings: plain residues with an end cap or a label only (N-terminal biotin on a linker: ado-ado)

Binder	pKd
B1	4.29
B2	3.92
B3	below the threshold
B4	4.21
B5	3.7

target: SCRIB_3, Q14160; assay: holdup assay; parameters: key: below the threshold = too weak to quantify, mostly under pKd 3.1 to 4; settings: plain residues with an end cap or a label only (N-terminal biotin on a linker: ado-ado)
Sequence (Q14160 999-1103): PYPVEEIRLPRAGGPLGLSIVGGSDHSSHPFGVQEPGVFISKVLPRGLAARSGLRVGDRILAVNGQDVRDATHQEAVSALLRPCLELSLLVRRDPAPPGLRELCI

Binder	pKd
B1	3.55
B2	below the threshold
B3	below the threshold
B4	below the threshold
B5	4.2

target: TJP2_1, Q9UDY2; assay: holdup assay; parameters: key: below the threshold = too weak to quantify, mostly under pKd 3.1 to 4; settings: plain residues with an end cap or a label only (N-terminal biotin on a linker: ado-ado)
Sequence (Q9UDY2 24-128): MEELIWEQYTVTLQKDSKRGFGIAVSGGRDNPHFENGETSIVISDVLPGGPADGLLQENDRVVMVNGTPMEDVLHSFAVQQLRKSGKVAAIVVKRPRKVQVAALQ

Binder	pKd
B1	below the threshold
B2	below the threshold
B3	below the threshold
B4	below the threshold
B5	3.66
